{"source": "the RNAGym collection of RNA variant scans (doi:10.7554/elife.90254)", "parents": {"B1": {"name": "LINE1-full (parent)", "chain": "UACGUAGGUGGUUUUCCCCUGAUAGUGCUAAGGGGGCCUGGAAGUUUGGACUGGGCAGAGCUCAACACAGCGUGGCAAAGUGGCUGUGGCUAGACUGCCUCUCUGGAUUCCUCGUCACUCAGCAGGGCAUCUCUGAGAGAAAUGCC"}}, "data": [{"variants_of": "B1", "test": "self-cleavage, relative activity (ratio to wild type); higher = more cleavage; in vitro, sequencing; the parent is a self-cleaving ribozyme", "values": [{"variant": "A69G A79C", "self-cleavage": 0.17}, {"variant": "A69C G93A", "self-cleavage": 0.01}, {"variant": "C71A U96A", "self-cleavage": 0.09}, {"variant": "G70A A136G", "self-cleavage": 0.11}, {"variant": "C71U U85A", "self-cleavage": 0.03}, {"variant": "G70A A142G", "self-cleavage": 0.11}, {"variant": "C71U G144A", "self-cleavage": 1.27}, {"variant": "C71A A117G", "self-cleavage": 0.15}, {"variant": "G70U U130C", "self-cleavage": 0.08}, {"variant": "A69G U134C", "self-cleavage": 0.44}, {"variant": "A69G U134A", "self-cleavage": 0.37}, {"variant": "A69U G127C", "self-cleavage": 0.12}, {"variant": "C71A A77G", "self-cleavage": 0.18}, {"variant": "A69G U109A", "self-cleavage": 0.43}, {"variant": "A69U A121G", "self-cleavage": 0.05}, {"variant": "A69U A121U", "self-cleavage": 0.05}, {"variant": "A69G U96C", "self-cleavage": 0.16}, {"variant": "A69G U96A", "self-cleavage": 0.04}, {"variant": "A69U U100C", "self-cleavage": 0.08}, {"variant": "A69U A124C", "self-cleavage": 0.02}, {"variant": "A69G C98U", "self-cleavage": 0.04}, {"variant": "A69G C103A", "self-cleavage": 0.43}, {"variant": "A69G U112G", "self-cleavage": 1.15}, {"variant": "A69G U112A", "self-cleavage": 0.74}, {"variant": "A69G U112C", "self-cleavage": 0.52}, {"variant": "A69G C146U", "self-cleavage": 0.51}, {"variant": "C71U A138G", "self-cleavage": 1.21}, {"variant": "A69U U73G", "self-cleavage": 0.31}, {"variant": "A69U U73C", "self-cleavage": 0.05}, {"variant": "A69U U73A", "self-cleavage": 0.04}, {"variant": "A69U A78G", "self-cleavage": 0.04}, {"variant": "C71U A124G", "self-cleavage": 0.28}, {"variant": "C71U A124U", "self-cleavage": 1}, {"variant": "A69G A140U", "self-cleavage": 0.47}, {"variant": "A69G A140G", "self-cleavage": 0.36}, {"variant": "A69U G114U", "self-cleavage": 0.06}, {"variant": "G70A U91A", "self-cleavage": 0.1}, {"variant": "A69U A94U", "self-cleavage": 0.05}, {"variant": "G70U A79G", "self-cleavage": 0.03}, {"variant": "A69U U115A", "self-cleavage": 0.07}, {"variant": "A69U U115C", "self-cleavage": 0.07}, {"variant": "A69U G93A", "self-cleavage": 0.03}, {"variant": "C71U A77U", "self-cleavage": 0.7}, {"variant": "G70A U100C", "self-cleavage": 0.29}, {"variant": "C71A U134A", "self-cleavage": 0.18}, {"variant": "A69G U130A", "self-cleavage": 0.39}, {"variant": "A69G U130C", "self-cleavage": 0.67}, {"variant": "A69G A142G", "self-cleavage": 0.5}, {"variant": "A69G A142U", "self-cleavage": 0.35}, {"variant": "G70A U132G", "self-cleavage": 0.19}, {"variant": "A69U G97A", "self-cleavage": 0.03}, {"variant": "G70U A138G", "self-cleavage": 0.1}, {"variant": "A69U C101U", "self-cleavage": 0.03}, {"variant": "A69G A136U", "self-cleavage": 0.45}, {"variant": "A69G A136G", "self-cleavage": 0.42}, {"variant": "G70C U112C", "self-cleavage": 0.14}, {"variant": "A69C U130C", "self-cleavage": 0.36}, {"variant": "A69G C145U", "self-cleavage": 0.55}, {"variant": "C71U U81C", "self-cleavage": 0.74}, {"variant": "C71U U81A", "self-cleavage": 0.88}, {"variant": "A69G A129U", "self-cleavage": 0.58}, {"variant": "G70A A140G", "self-cleavage": 0.06}, {"variant": "C71U A141U", "self-cleavage": 1.46}, {"variant": "C71U A141G", "self-cleavage": 0.68}, {"variant": "A69G U73C", "self-cleavage": 0.59}, {"variant": "A69U U85A", "self-cleavage": 0.5}, {"variant": "A69G C123G", "self-cleavage": 0.84}, {"variant": "C71A A124G", "self-cleavage": 0.13}, {"variant": "A69G C131A", "self-cleavage": 1.01}, {"variant": "A69U U132A", "self-cleavage": 0.06}, {"variant": "A69U U132C", "self-cleavage": 0.07}, {"variant": "A69G U108A", "self-cleavage": 0.07}, {"variant": "A69G G74A", "self-cleavage": 0.49}, {"variant": "A69C U119A", "self-cleavage": 0.04}, {"variant": "A69G C95A", "self-cleavage": 0}, {"variant": "A69G C95U", "self-cleavage": 0.06}, {"variant": "A69G U81G", "self-cleavage": 0}, {"variant": "A69G C133A", "self-cleavage": 0.47}, {"variant": "A69G U115G", "self-cleavage": 0.57}, {"variant": "A69G U115C", "self-cleavage": 0.88}, {"variant": "A69G U115A", "self-cleavage": 0.25}, {"variant": "C71U A117G", "self-cleavage": 0.64}, {"variant": "A69G U91A", "self-cleavage": 0.16}, {"variant": "A69U A138U", "self-cleavage": 0.09}, {"variant": "A69G C128A", "self-cleavage": 0.14}, {"variant": "A69G G82A", "self-cleavage": 0.68}, {"variant": "A69U U130A", "self-cleavage": 0.09}, {"variant": "A69U U130C", "self-cleavage": 0.05}, {"variant": "C71G A124G", "self-cleavage": 0.25}, {"variant": "A69G A107G", "self-cleavage": 0.37}, {"variant": "A69G G86A", "self-cleavage": 0.03}, {"variant": "A69U C131U", "self-cleavage": 0.03}, {"variant": "A69U C131A", "self-cleavage": 0.07}, {"variant": "A69G U104C", "self-cleavage": 0.71}, {"variant": "A69G U104A", "self-cleavage": 0.2}, {"variant": "C71U A129G", "self-cleavage": 0.91}, {"variant": "A69G G122A", "self-cleavage": 0.4}, {"variant": "G70U A121G", "self-cleavage": 0.27}, {"variant": "A69G A141G", "self-cleavage": 0.44}, {"variant": "A69G G72A", "self-cleavage": 0.54}, {"variant": "A69G A117U", "self-cleavage": 0.64}, {"variant": "A69G A117G", "self-cleavage": 0.5}, {"variant": "G70A U85G", "self-cleavage": 0.01}, {"variant": "G70A A138C", "self-cleavage": 0.32}, {"variant": "A69G A124G", "self-cleavage": 0.32}, {"variant": "A69G G125U", "self-cleavage": 0.3}, {"variant": "C71G A136G", "self-cleavage": 0.28}, {"variant": "C71A U73C", "self-cleavage": 0.31}, {"variant": "A69G U85C", "self-cleavage": 0.51}, {"variant": "A69G G139U", "self-cleavage": 0.36}, {"variant": "G70A A129G", "self-cleavage": 0.09}, {"variant": "A69U C146U", "self-cleavage": 0.08}, {"variant": "C71G U130C", "self-cleavage": 0.45}, {"variant": "A69G A121U", "self-cleavage": 0.62}, {"variant": "A69G A121C", "self-cleavage": 0.51}, {"variant": "A69G A121G", "self-cleavage": 0.6}, {"variant": "A69U A141G", "self-cleavage": 0.07}, {"variant": "G70A A92G", "self-cleavage": 0.04}, {"variant": "A69C U143A", "self-cleavage": 0.07}, {"variant": "A69C U143G", "self-cleavage": 0}, {"variant": "A69U G72A", "self-cleavage": 0.04}, {"variant": "A69U A136G", "self-cleavage": 0.06}, {"variant": "C71A A140G", "self-cleavage": 0.23}, {"variant": "A69G G88C", "self-cleavage": 0.06}, {"variant": "G70U U81C", "self-cleavage": 0.3}, {"variant": "A69U C99G", "self-cleavage": 0.09}, {"variant": "G70A C128A", "self-cleavage": 0.04}, {"variant": "C71G A141G", "self-cleavage": 0.4}, {"variant": "C71A C133U", "self-cleavage": 0.08}, {"variant": "A69C U104C", "self-cleavage": 0.22}, {"variant": "C71A G93U", "self-cleavage": 0.03}, {"variant": "C71A A78G", "self-cleavage": 0.19}, {"variant": "A69G G114A", "self-cleavage": 0.99}, {"variant": "G70A U115G", "self-cleavage": 0.11}, {"variant": "A69G U102C", "self-cleavage": 0.47}, {"variant": "A69G U102A", "self-cleavage": 0.93}, {"variant": "C71U C101A", "self-cleavage": 1.14}, {"variant": "C71U C146U", "self-cleavage": 0.66}, {"variant": "A69U C120U", "self-cleavage": 0.07}, {"variant": "A69G C118U", "self-cleavage": 0.2}, {"variant": "A69G C118A", "self-cleavage": 0.51}, {"variant": "G70A U73A", "self-cleavage": 0.09}, {"variant": "C71U U73C", "self-cleavage": 0.1}, {"variant": "C71U U73A", "self-cleavage": 0.31}, {"variant": "A69U U134C", "self-cleavage": 0.09}, {"variant": "G70A A124C", "self-cleavage": 0.21}, {"variant": "A69U A79U", "self-cleavage": 0.08}, {"variant": "A69U A79C", "self-cleavage": 0.12}, {"variant": "G70A U134C", "self-cleavage": 0.15}, {"variant": "A69U U87A", "self-cleavage": 0.04}, {"variant": "A69U U87C", "self-cleavage": 0.06}, {"variant": "A69G A138G", "self-cleavage": 0.56}, {"variant": "A69U G89U", "self-cleavage": 0.02}, {"variant": "A69U G89A", "self-cleavage": 0.04}, {"variant": "G70C A77U", "self-cleavage": 0.09}, {"variant": "A69U", "self-cleavage": 0.06}, {"variant": "A69G", "self-cleavage": 0.5}, {"variant": "A69G U132C", "self-cleavage": 0.71}, {"variant": "A69G A78U", "self-cleavage": 0.63}, {"variant": "C71G", "self-cleavage": 0.27}, {"variant": "C71U", "self-cleavage": 0.86}, {"variant": "C71A", "self-cleavage": 0.2}, {"variant": "G70U A140G", "self-cleavage": 0.04}, {"variant": "A69C U112C", "self-cleavage": 0}, {"variant": "C71U A79G", "self-cleavage": 0.2}, {"variant": "G70A A107G", "self-cleavage": 0.08}, {"variant": "G70U C90G", "self-cleavage": 0.02}]}]}
